For 36 sequences, protein stability index results are on record in the supplement of paper PMC10567573.

± gives the standard deviation.

The data set is described as follows: protein stability index of a GFP-peptide fusion (GPS, HEK-293T) (PSI 1-6); higher = more stable. As to conditions: c terminus: a fixed tail appended.
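Note: 24-mer peptide tiles fused after GFP, lentivirally expressed, FACS-sorted into six equal bins by GFP/DsRed ratio, decoded by Illumina sequencing, PSI is the read-weighted mean bin number.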

For the sequence AAAHWYGGAEMRTQHWPIRLDGQQ [MYORG], the protein stability index came out at 2.86 ± 0.15 (treatment: DMSO) and 2.79 ± 0.14 (treatment: MLN4924 1 uM, 8 h).

On to AAATTTTTTSAATATTAPPALDIF [SNAP91], for which the protein stability index was determined as 4.45 ± 0.24 (treatment: DMSO) and 4.61 ± 0.16 (treatment: MLN4924 1 uM, 8 h).

As for AACFDGRLDIVKYLVENNANISIA [FEM1B], the protein stability index runs as follows: (treatment: DMSO) 2.38 ± 0.38; (treatment: MLN4924 1 uM, 8 h) 2.21 ± 0.38.

AAGRVCRPPGPAGTEQSRGLGHGS [CPOX]: the protein stability index is 4.44 ± 0.25 (treatment: DMSO) and 4.53 ± 0.4 (treatment: MLN4924 1 uM, 8 h).

Regarding AAKLLNVDPDNVVLCLLAADEDDD [GADD45A], the protein stability index (treatment: DMSO) stood at 3.68 ± 0.16 and the protein stability index (treatment: MLN4924 1 uM, 8 h) worked out at 3.94 ± 0.27.

Regarding AALEEESRQRQSRMEKGEPYMSIQ [SMARCE1], the protein stability index is, setting by setting: (treatment: DMSO) 4.88 ± 0.34; (treatment: MLN4924 1 uM, 8 h) 4.88 ± 0.22.

As for AAMLSMVKYNSCADRPFSAPWWFW [POMT2], the protein stability index reads like this: (treatment: DMSO) 2.31 ± 0.25; (treatment: MLN4924 1 uM, 8 h) 2.1 ± 0.31.

AAPGKQPGRGHTHAAQGGPLLCPG [ELOA2]: the protein stability index is, setting by setting: (treatment: DMSO) 4.09 ± 0.31; (treatment: MLN4924 1 uM, 8 h) 4.31 ± 0.26.

AASTAAALENLQVEASCSVCLEYL [TRIM39]: the protein stability index reads like this: (treatment: DMSO) 2.74 ± 0.37; (treatment: MLN4924 1 uM, 8 h) 2.81 ± 0.48.

Regarding AATTSKEQEPIGTDLDAVRTPEPL [MYBL2], the protein stability index (treatment: DMSO) is 5.46 ± 0.3 and the protein stability index (treatment: MLN4924 1 uM, 8 h) stood at 5.41 ± 0.25.

As to ACGDFFTACLTDRGIIMTFGSGSN [NEK8], the protein stability index runs as follows: (treatment: DMSO) 2.66 ± 0.83; (treatment: MLN4924 1 uM, 8 h) 2.78 ± 0.64.

Sequence ACSAPGGLVPSEKPPMMPQAQPAI [C2CD2L] displayed a protein stability index (treatment: DMSO) of 4.24 ± 0.15 and a protein stability index (treatment: MLN4924 1 uM, 8 h) of 4.18 ± 0.19.

On to ADFGLARIYSYQMALTPVVVTLWY [CDK4], for which the protein stability index reads like this: (treatment: DMSO) 3.52 ± 0.99; (treatment: MLN4924 1 uM, 8 h) 2.78 ± 0.81.

As to ADLELSLPECLEYEEEFDYETESE [GNAS], the protein stability index stood at 5.41 ± 0.24 (treatment: DMSO) and 5.47 ± 0.16 (treatment: MLN4924 1 uM, 8 h).

For the sequence ADVLLQAGADLEHESEGGRTPLMK [ANKRD17], the protein stability index runs as follows: (treatment: DMSO) 5.17 ± 0.34; (treatment: MLN4924 1 uM, 8 h) 5.29 ± 0.15.

Take AEDHLDGCCKRRYLQKIEEFAEMV [KCNG1]: the protein stability index (treatment: DMSO) was 3.06 ± 0.14 and the protein stability index (treatment: MLN4924 1 uM, 8 h) came to 2.96 ± 0.1.

Take AEGHKASFCLEDTECEGDIQKNYE [LOXL2]: the protein stability index reads like this: (treatment: DMSO) 5.47 ± 0.4; (treatment: MLN4924 1 uM, 8 h) 5.33 ± 0.33.

In turn, AELKEAVEEPSSKDVMEKREDSKE [CHGA] had a protein stability index (treatment: DMSO) of 5.67 ± 0.083 and a protein stability index (treatment: MLN4924 1 uM, 8 h) of 5.61 ± 0.17.

As to AFGWFRCSSCQRSWASAQVQILCH [RTP4], the protein stability index by setting is: (treatment: DMSO) 2.45 ± 0.37; (treatment: MLN4924 1 uM, 8 h) 2.68 ± 0.54.

For the sequence AFKAAALIQRWYRRYVARLEMRRR [PPEF2], the protein stability index runs as follows: (treatment: DMSO) 3.55 ± 0.57; (treatment: MLN4924 1 uM, 8 h) 4.15 ± 0.59.

On to AFLLLPLPDELGSQLPQVLHVSLG [MOSPD3], for which the protein stability index is, setting by setting: (treatment: DMSO) 2.96 ± 0.76; (treatment: MLN4924 1 uM, 8 h) 2.73 ± 0.49.

Turning to AFLRRVKTCNPPDAGPMVVHCSAG [PTPRD], the protein stability index reads like this: (treatment: DMSO) 2.15 ± 0.068; (treatment: MLN4924 1 uM, 8 h) 2.18 ± 0.3.

Sequence AGEGAEALARNLLVDGETGESFPA [NFE2L1] had a protein stability index (treatment: DMSO) of 5.37 ± 0.09 and a protein stability index (treatment: MLN4924 1 uM, 8 h) of 5.41 ± 0.21.

As to AGKQRMKEKEQENERKVAQLAEEN [DDIT3], the protein stability index was determined as 5.29 ± 0.41 (treatment: DMSO) and 5.49 ± 0.43 (treatment: MLN4924 1 uM, 8 h).

Regarding AGPELDEMLREVDLNGDGTVDFDE [CABP4], the protein stability index was 5.67 ± 0.23 (treatment: DMSO) and 5.36 ± 0.11 (treatment: MLN4924 1 uM, 8 h).

Consider AGSTDDRIVVPQRGRSTRVPVASV [SPNS1], for which the protein stability index reads like this: (treatment: DMSO) 4.22 ± 0.077; (treatment: MLN4924 1 uM, 8 h) 4.39 ± 0.45.

Take AGWTLATLGEQGLPHQSHRQRSSL [SCNN1D]: the protein stability index was 3.62 ± 0.21 (treatment: DMSO) and 3.75 ± 0.21 (treatment: MLN4924 1 uM, 8 h).

Consider AIDQYRVCQEVLERSRDVVDEVSV [RHOBTB1], for which the protein stability index by setting is: (treatment: DMSO) 4.61 ± 0.21; (treatment: MLN4924 1 uM, 8 h) 4.32 ± 0.15.

For the sequence AIRPENRAPGAGLGQDRQVPLWGQ [EMD], the protein stability index by setting is: (treatment: DMSO) 3.5 ± 0.21; (treatment: MLN4924 1 uM, 8 h) 3.45 ± 0.18.

For the sequence AKDPGKGELPNHPKPAGGAIPTKK [FBF1], the protein stability index was found to be 5.47 ± 0.34 (treatment: DMSO) and 5.65 ± 0.15 (treatment: MLN4924 1 uM, 8 h).

Regarding AKINIVYQELNYRSVEEAPVYSVP [SCNN1D], the protein stability index was 2.17 ± 0.14 (treatment: DMSO) and 2.15 ± 0.45 (treatment: MLN4924 1 uM, 8 h).

On to AKKIKLTAEAEELKPFFMKEVGSH [SOAT1], for which the protein stability index runs as follows: (treatment: DMSO) 3.5 ± 0.34; (treatment: MLN4924 1 uM, 8 h) 3.59 ± 0.38.

For the sequence ALEEPEKMGLQERSETFLEVWGNA [DNAAF3], the protein stability index is 4.35 ± 0.22 (treatment: DMSO) and 4.32 ± 0.42 (treatment: MLN4924 1 uM, 8 h).

Turning to ALILHQRIHSGKKPYACDECAKAF [ZNF396], the protein stability index is, setting by setting: (treatment: DMSO) 2.11 ± 0.26; (treatment: MLN4924 1 uM, 8 h) 2.84 ± 0.45.

Take ALKEDFGFKHRLWVYSGRRGVHCW [PRIM1]: the protein stability index reads like this: (treatment: DMSO) 2.28 ± 0.65; (treatment: MLN4924 1 uM, 8 h) 2.48 ± 0.61.

For ALQPSPSIRLPLDAPLPGSKAKPK [TBC1D10A], the protein stability index (treatment: DMSO) came to 4.19 ± 0.21 and the protein stability index (treatment: MLN4924 1 uM, 8 h) is 4.32 ± 0.34.
